Test results: US6835539B1, “Nucleic sequences coding for an AT2 interacting proteins interacting with the AT2 receptor and their applications” (priority 1998, dated 2004)

Tests used:
[1] = target: T1, AT2 receptor (Homo sapiens, UniProt P50052); assay: Inhibition of insulin-induced tyrosine phosphorylation in CHO-hAT2-ATIP cells; format: cell-based; design: a plasmid containing the region encoding the human AT2 receptor; expressed in transfected cells; host or cells: CHO-hAT2 cells stably transfected with ATIPmouse-long; conditions: 100 nM, insulin 0.05, 0.01, 0.005, 0.001 μg/ml, reproduced 3 times
T1 sequence (P50052 1-363): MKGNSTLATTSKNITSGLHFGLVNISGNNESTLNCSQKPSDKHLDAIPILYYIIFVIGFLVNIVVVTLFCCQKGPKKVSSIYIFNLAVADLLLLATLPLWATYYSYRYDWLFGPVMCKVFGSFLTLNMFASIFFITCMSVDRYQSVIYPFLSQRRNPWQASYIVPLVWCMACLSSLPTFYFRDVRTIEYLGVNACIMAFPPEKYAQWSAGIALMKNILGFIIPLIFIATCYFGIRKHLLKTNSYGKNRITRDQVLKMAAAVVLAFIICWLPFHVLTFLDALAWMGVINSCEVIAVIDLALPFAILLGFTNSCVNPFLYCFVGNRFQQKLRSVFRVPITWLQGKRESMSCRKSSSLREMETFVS
Text: (§1) For that, a stable clone of CHO-hAT2 cells expressing the ATIPmouse-long protein (CHO-hAT2-ATIP), obtained according to the methodology described in Example 4, was used; the functional test for the activity of the AT2 receptor developed on the CHO-hAT2 clone which consists in inhibiting the phosphorylation of the IRβ subunit of the insulin receptor induced by its ligand, was reproduced.
The CHO-hAT2 cells are inoculated at a density of 3×10^6 cells per dish having a diameter of […]. They are made quiescent by 16 hours of deprivation before being treated. The treatment consists in bringing into contact for 5 minutes with 15 ml of F12 medium containing insulin supplemented or otherwise with CGP42112 (selective agonist of the AT2 receptor). […] After bringing into contact and washings, the lectin beads coupled to Sepharose (Pharmacia) are recovered in sample buffer containing SDS and the eluted proteins are analysed in SDS-PAGE followed by immunoblotting with anti-phosphotyrosine antibodies (Upstate Biotechnology, Inc.) or anti-IRβ antibodies (described in Issad, T. et al., cited above). […]

[2] = target: T1, AT2 receptor; assay: Inhibition of insulin-induced tyrosine phosphorylation in CHO-hAT2 cells; format: cell-based; design: a plasmid containing the region encoding the human AT2 receptor; expressed in transfected cells; host or cells: CHO cells deficient in dihydrofolate reductase (clone CHO-hAT2)
Text: as §1
The CHO-hAT2 cells are inoculated at a density of 3×10^6 cells per dish having a diameter of […]. They are made quiescent by 16 hours of deprivation before being treated. […] After treatment, the cells are solubilized in lysis buffer containing: 50 mM Hepes, pH 7.6, 1% Triton X-100, 20 mM EDTA, 30 mM sodium pyrophosphate, 30 mM sodium fluoride, 2 mM benzamidine, 1 mM sodium orthovanadate, 1 mM phenylmethylsulphonyl fluoride and 1 μg/ml of aprotinin, pepstatin, antipain and leupeptin. The lysates are then subjected to purification on a wheatgerm lectin column, according to the protocol described in Issad, T. et al., (Eur. J. Biochem. 1995, 234, 108-115). After bringing into contact and washings, the lectin beads coupled to Sepharose (Pharmacia) are recovered in sample buffer containing SDS and the eluted proteins are analysed in SDS-PAGE followed by immunoblotting with anti-phosphotyrosine antibodies (Upstate Biotechnology, Inc.) or anti-IRβ antibodies (described in Issad, T. et al., cited above).

[3] = target: T2, C-terminal end of the mouse AT2 receptor (Mus musculus, UniProt P35374); assay: Two-hybrid interaction of the ATIP clone with the AT2 C-terminal bait; format: binding; conditions: baits in pGBT9 and pLEX9; mouse foetal cDNA library clone
T2 construct: expressed in transfected cells; host or cells: yeast HF7c (pGBT9 bait) or L40 (pLex9 bait)
T2 sequence (P35374 312-363): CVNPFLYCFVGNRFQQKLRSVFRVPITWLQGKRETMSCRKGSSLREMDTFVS
Text: In the two-hybrid system, the DNA-binding domain is fused with a protein X and the activation domain is fused with a protein Y. If, and only if, X and Y interact, a complex is formed which reconstitutes a functional transcription factor.
Protein X: C-terminal end of the sequence encoding the mouse AT2 receptor (52 amino acids of CVNPF at the stop codon, see FIG. 1), fused with the sequence encoding the Gal4 DNA-binding domain (FIG. 2).
Insert: end of the mouse AT2 receptor (159 bp+16 bp of sites generated by PCR) inserted at the level of the EcoRI and BamHI sites of the vectors pLEX9 (Clontech) or pGBT9 (modified pGAD424 or pBTM116; A. B. Vojtek et al., Cell, 1993, 74, 205-214).
mouse foetal cDNA library (A. B. Vojtek et al., Cell, 1993, 74, 205-214) , containing inserts of 350 to 700 bp (protein Y) in the vector VP16 (FIG. 5).
HF7c (Clontech) for the bait constructed in pGBT9;
L40 for the bait constructed in pLex9.

[4] = test system: C-terminal end of the human bradykinin receptor; assay: Two-hybrid selectivity test with a control bait; format: binding
Text: (§2) Protein X: C-terminal end of the human β2-adrenergic receptors, rat AT1 or human bradykinin.

[5] = target: T3, C-terminal end of the human β2 adrenergic receptor (Homo sapiens, UniProt P07550); assay: Two-hybrid selectivity test with a control bait; format: binding
T3 construct: C-terminal end of the human β2-adrenergic receptors; expressed in transfected cells
Text: as §2

[6] = test system: C-terminal end of the rat AT1 receptor; assay: Two-hybrid selectivity test with a control bait; format: binding
Text: as §2

[7] = target: T4, C-terminal end of the human AT2 receptor (Asn314-Ser363) (Homo sapiens, UniProt P50052); assay: In vitro GST pull-down of MBP-AT2 on GA-GST-ATIPmouse-short beads; format: binding; conditions: compared with GA-GSTalone beads; SDS-PAGE and anti-MBP immunoblot; FIG. 10
T4 construct: C-terminal end of the human AT2 receptor (Asn314-Ser363); made in house; host or cells: E. coli DH5α (pMAL-c2-AT2)
T4 sequence (P50052 314-363): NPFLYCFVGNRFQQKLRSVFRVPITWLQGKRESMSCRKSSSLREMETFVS
Procedure: For that, the fusion protein GST-ATIP as described above was produced; it is combined through its GST part with glutathione coupled to agarose beads (GA). In parallel, bacteria (DH5α) are transfected with a plasmid (pMAL-c2-AT2, derived from pMAL-c2 from New England Biolabs) encoding a fusion protein between the C-terminal end of the human AT2 receptor (Asn314-Ser363) and MBP (Maltose Binding Protein). These bacteria were cultured and the fusion protein was induced in 0.3 mM IPTG according to the protocol “pMAL Protein Fusion and Purification System” from New England Biolabs. After centrifugation of the culture at 4000 g and solubilization of the pellet obtained in “column buffer” (20 mM Tris-HCl, 200 mM NaCl, 1 mM EDTA), another centrifugation at 9000 g made it possible to recover a supernatant containing a high concentration of MBP-AT2. This supernatant was brought into contact, for 3 hours at […], with glutathione agarose beads coupled to GST protein alone after addition of NaCl so as to have 300 mM final NaCl. This preincubation step makes it possible to remove the nonspecific interactions which may exist between ATIP and GA-GST. The supernatant recovered was brought into contact with the GA-GST-ATIPmouse-short or GA-GSTalone beads overnight at 4° C. After contact, the beads were rinsed three times in 20 mM Tris-HCl buffer, 300 mM NaCl, 1 mM EDTA and once in “column buffer”.

[8] = target: T5, C-terminal end of human AT1 receptor (Leu 297-Glu 359) (Homo sapiens, UniProt P30556); assay: In vitro GST pull-down of MBP-AT1 on GA-GST-ATIPmouse-short beads; format: binding; conditions: SDS-PAGE and anti-MBP immunoblot; FIG. 10
T5 construct: C-terminal end of human AT1 receptor (Leu 297-Glu 359); made in house; host or cells: bacteria, same protocol as MBP-AT2 (E. coli DH5α)
T5 sequence (P30556 297-359): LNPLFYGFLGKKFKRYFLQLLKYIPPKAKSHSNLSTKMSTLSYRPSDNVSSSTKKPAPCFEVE

## CGP42112
[1]
  inhibition of the phosphorylation of the insulin receptor: not observed
[2]; CHO-hAT2 cells, 100 nM, all insulin doses between 0.1 and 0.001 μg/ml, 5 minutes
  inhibition of the phosphorylation of IRβ induced by insulin: inhibit
[2]; CHO-hAT2 cells, induced by 0.01 μg/ml insulin, n=7
  inhibition of the phosphorylation of IRβ: 64±4%
[2]; clone CHO-hAT2
  inhibition of insulin-induced tyrosine phosphorylation of SIRP (120 kDa): inhibited

B1: ATIPmouse-short: Polypeptide (SEQ ID NO:6) encoded by the 354 bp ATIP clone (SEQ ID NO:5); AT2 interacting protein fragment, used as a GST fusion (protein)
chain: HQTDRTELENRLKDLYTAECEKLQSIYIEEAEKYKTQLQEQFDNLNAAHETTKLEIEASHSEKVELLKKTYETSLSEIKKSHEMEKKSLEDLLNEKQESLEKQINDLKSENDALNERL
modifications: used as GST fusion; Insert identified by yeast two hybrid screening of a M. musculus fetal cDNA library
[3]
  interaction with the C-terminal end of AT2 in the two-hybrid system: interacts specifically
[4]
  two-hybrid interaction with the C-terminal end of the human bradykinin receptor: negative results
[5]
  two-hybrid interaction with the C-terminal end of the human β2 adrenergic receptor: negative results
[6]
  two-hybrid interaction with the C-terminal end of the rat AT1 receptor: negative results
[7]
  retention of the MBP-AT2 protein on GA-GST-ATIPmouse-short beads: specific retention
[8]
  retention of the MBP-AT1 protein on GA-GST-ATIPmouse-short beads: not retained in a specific manner
